Reference: US20250270339A1 (Alector, published 2025)
Positions count from the first letter of the chain named.

T1: huTfR Apical Domain-Avi-His (human, biotin on the Avi tag (BirA) where captured on streptavidin)
T1 construct: also called huTfR apical Avi-His; hTfR Apical
T1 chain: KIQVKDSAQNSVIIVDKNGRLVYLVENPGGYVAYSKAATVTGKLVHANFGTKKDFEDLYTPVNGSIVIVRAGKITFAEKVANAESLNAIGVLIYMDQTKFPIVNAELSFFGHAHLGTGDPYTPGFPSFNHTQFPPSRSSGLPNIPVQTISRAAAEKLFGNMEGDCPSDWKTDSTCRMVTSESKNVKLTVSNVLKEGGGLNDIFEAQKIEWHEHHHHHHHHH

B1: TfR10 (mouse hybridoma antibody) (antibody, V domains shown)
VH: QVQLQQSGPELVKPGASVKMSCKASGYTFTSYYIHWVKQRPGQGLEWIGWIYPGDGNTNYNEKFKGKTTLTADKSSSTAYMLLSSLTSEDSAIYFCARDGSIPFAYWGQGTLVTVSA
VL: DIVMTQSPSSLTVTAGEKVTMSCKSSQSLLNSGNQKNYLTWYQQKPGQPPKLLIYWASTRESGVPDRFTGSGSGTDFTLTISSVQAEDLAVYYCQNDYSYPLTFGAGTKLELK
notes: mouse IgG in hybridoma supernatant
B2: TfR26 (mouse hybridoma antibody) (antibody, V domains shown)
VH: QVQLHQSGPELVKPGASVKMSCKASGYTFTNYYIHWVKQRPGQGLEWIGWIYPGDGVTHYNEKFKGKTTLTADKSSSTAYMLLSSLTSEDSAIYFCARDKDVPGMDYWGQGTSVTVSS
VL: B1 VL with A15S, G33E, T75P
notes: as for B1
B3: TfR25 (mouse hybridoma antibody) (antibody, V domains shown)
VH: B2 VH with H5Q, A16T, V37M, V57N, K63R, A79V, L82F, S84T, R98K, V102M
VL: B1 VL with I2M, L30F, G33E, Y55S, S82N
notes: as for B1
B4: TfR24 (mouse hybridoma antibody) (antibody, V domains shown)
VH: B1 VH with A16T, G56D, N59H, K63N, G100Y, S101Y, I102G, P103R
VL: B1 VL with K18R, Y42F, L79V, S99G
notes: as for B1
B5: TfR11 (mouse hybridoma antibody) (antibody, V domains shown)
VH: EVQLQQSGTVLARPGASVKMSCKASGYSFTSYWMHWVKQRPGQGLEWIGAIFPGNIDTIYNQKFKDKAKLTAVTSASTAYMELSSLTNEDSAVYFCTRLYYDYVWGAGTTVTVSS
VL: DIKMTQSPSSMYASLGERVTLTCKASQDINSYLSWFQQKPGKSPKTLIYHVNRLVDGVPSRFSGSGSGQDYSLTISSLEYEDMGIYYCLQYDEFPYTFGGGTKLEIK
notes: as for B1
B6: TfR16 (mouse hybridoma antibody) (antibody, V domains shown)
VH: EVQLQQSGTVLARPGASVKMSCKTSGYSFSSYWMHWVKQRPGQGLEWIGTIYPGNSDTIYNQNFKGKAKLTAVTSASTAYMELSSLTNEDSAVYYCSTIYYFSNWGQGTTLTVSS
VL: B5 VL with S10P, Y12F, L21I, H50R, V51A, V55L, E79D, M83V, E93V
notes: as for B1
B7: TfR13 (mouse hybridoma antibody) (antibody, V domains shown)
VH: DVKLVESGGGLVKPGGSLKLSCAASGFTFSSYTMSWVRQTPEKRLEWVATISSGGSYTYFPDSVKGRFTISRDNAKNTLYLQMSSLKSEDTAIYYCTRAHYYAYDYWGQGTTLTVSS
VL: DILLTQSPAILSVSPGERVSFSCRASQSIGTSIHWYQQRTNGSPRLLIKYASGSISGIPSRFSGSGSGTDFTLSINSVESEDIADYYCQQSNSWPTSTFGAGTKLELK
notes: as for B1
B8: TfR15 (mouse hybridoma antibody) (antibody, V domains shown)
VH: QVQLQQPGSELVRPGASVKLSCKASGYTFTSYWMHWVKQRPGQGLEWIGNIYPGSGSSNYDEKFKSKATLTVDTSSSTAYMQLNSLTSEDSAVYYCTRSSYYGNFDTMDNWGQGTSVTVSS
VL: QIVLTQSPAIMSASPGEKVTMTCSASSSIRYMNWYQQKPVTSPKRWIYDTSTLASGVPARFSGSGSGTSYSLTISSMEAEDAATYYCHQRSSYPWTFGGGTKLEIK
notes: as for B1
B9: TfR22 (mouse hybridoma antibody) (antibody, V domains shown)
VH: DVQLQESGPGLVKPSQSLSLTCTVTGYSITSDYAWNWIRQFPGNKLEWMGYISYSGSTRYNPSLKSRISITRDTSKNQFFLQLNSVTTEDTATYYCTSWGYRYLEDYWGQGTSVTVSA
VL: B8 VL with K18R, R30S, Y31S, N33H, V40G, R45K, T52K
notes: as for B1
B10: TfR17 (mouse hybridoma antibody) (antibody, V domains shown)
VH: B9 VH with R59S, T97A, A118S
VL: B8 VL with R30S, Y31S, N33H, V40G, Y48S, T52K, V57I, E78A, T84A
notes: as for B1
B11: TfR28 (mouse hybridoma antibody) (antibody, V domains shown)
VH: B9 VH with R59S, K65R, T97A, S98I, W99R, L104E, S113T, V114L, A118S
VL: B8 VL with G16R, R30S, Y31S, N33H, V40G, T52K
notes: as for B1
B12: TfR23 (mouse hybridoma antibody) (antibody, V domains shown)
VH: B9 VH with R59S, A118S
VL: B8 VL with K18R, R30S, Y31S, M32L, N33H, V40G, R45K, T52K, T73A
notes: as for B1
B13: TfR31 (mouse hybridoma antibody) (antibody, V domains shown)
VH: B9 VH with S57R, R59S, I70F, T97A, S98G, A118S
VL: B8 VL with R30S, Y31S, N33H, Q37L, V40G, R45K, T52K
notes: as for B1
B14: TfR27 (mouse hybridoma antibody) (antibody, V domains shown)
VH: B8 VH with S55T, S58T, N84S, N110Y
VL: B8 VL with V3F, K18R, V40G, T52E, S62T, S92G
notes: as for B1

Target: T1, huTfR Apical Domain-Avi-His
Test: ELISA OD450, supernatant
Protocol: Hybridoma culture supernatants from 319 hybridomas obtained as described above were screened for their ability to bind Avi-His-tagged huTfR ECD, huTfR apical domain, and muTfR ECD (as described in Example 1) as compared to binding to an irrelevant Avi-His-tagged control protein. Briefly, 96-well polystyrene plates were coated with 5 μg/ml of streptavidin (Thermo Fisher, Cat #PI21125) in coating buffer (0.05M carbonate buffer, pH 9.6, Sigma, Cat #C3041) overnight at 4° C. Coated plates were then blocked with ELISA diluent (PBS+0.5% BSA+0.05% Tween20) for one hour. Blocking buffer was removed and Avi-His-tagged human TfR, human TfR apical domain, mouse TfR and an irrelevant Avi-His-tagged protein were added at 1 μg/ml in ELISA diluent and captured for 1 hour at room temperature. After washing three times with 300 μl of PBST (PBS+0.05% Tween20, Thermo 28352), the hybridoma cell culture supernatants were added (50 μl/well) to each well. After 30 minutes of incubation at room temperature, the plates were washed three times with 300 μl of PBST. Anti-mouse IgG Fc-HRP or anti-rat IgG Fc-HRP (Jackson Immunoresearch, Cat #115-035-071 and 112-036-071, respectively) secondary antibodies were diluted 1:5000 in ELISA diluent, added to each well at 50 μl/well, and incubated for 30 minutes at room temperature with shaking. After a final set of washes (3×300 μl in PBST), 50 μl/well of BioFx TMB substrate (Surmodics, Cat #TMBW-1000-01) was added to the wells. The reaction was then quenched after 5-10 mins with 50 μl/well of 2N sulfuric acid. The plates were read for absorbance at 450 nm on a SpectraMax M5 (Molecular Devices, Sunnyvale, CA) using SoftMax Pro software.

Row | Binder | ratio over irrelevant protein [fold]
1 | B1 | 35
2 | B2 | 35
3 | B3 | 33
4 | B4 | 31
5 | B5 | 39
6 | B6 | 18
7 | B7 | 22
8 | B8 | 34
9 | B9 | 33
10 | B10 | 26
11 | B11 | 30
12 | B12 | 31
13 | B13 | 20
14 | B14 | 34

What follows are binders tested against T2, Full length Mouse TfR on CHO cells (mouse, UniProt Q62351 1-763) (assay: FACS MFI, supernatant).
T2 construct: also called CHO + muTfR
T2 sequence (Q62351 whole entry): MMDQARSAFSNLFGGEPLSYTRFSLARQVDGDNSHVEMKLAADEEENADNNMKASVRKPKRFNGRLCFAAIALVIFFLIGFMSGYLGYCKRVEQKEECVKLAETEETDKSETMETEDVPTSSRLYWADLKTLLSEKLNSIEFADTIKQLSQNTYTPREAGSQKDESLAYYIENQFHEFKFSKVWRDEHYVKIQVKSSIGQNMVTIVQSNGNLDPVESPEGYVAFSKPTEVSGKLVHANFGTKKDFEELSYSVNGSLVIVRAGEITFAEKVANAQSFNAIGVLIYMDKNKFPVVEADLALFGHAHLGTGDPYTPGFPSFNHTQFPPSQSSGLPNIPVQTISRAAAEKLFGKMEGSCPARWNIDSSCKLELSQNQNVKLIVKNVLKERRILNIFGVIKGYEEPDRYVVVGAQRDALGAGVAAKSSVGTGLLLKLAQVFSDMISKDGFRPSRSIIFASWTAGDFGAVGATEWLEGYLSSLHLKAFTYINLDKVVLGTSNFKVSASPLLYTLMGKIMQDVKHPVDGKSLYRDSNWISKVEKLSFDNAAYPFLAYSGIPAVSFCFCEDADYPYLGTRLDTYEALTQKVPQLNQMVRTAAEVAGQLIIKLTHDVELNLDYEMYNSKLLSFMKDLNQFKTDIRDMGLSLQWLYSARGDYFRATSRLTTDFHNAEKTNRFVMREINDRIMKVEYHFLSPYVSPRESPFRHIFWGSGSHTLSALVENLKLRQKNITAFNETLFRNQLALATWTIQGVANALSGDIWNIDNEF
Protocol: (§1) A total of 1536 anti-TfR hybridoma supernatants were initially screened for their ability to differentially bind CHO cells overexpressing human or mouse TfR cells compared to CHO parental cells by FACS. Overexpressing cells were harvested, washed and labeled with Pacific Blue, FITC and Pacific Orange dyes (ThermoFisher) to create uniquely barcoded cell populations. Barcoded cells (5×10⁴ of each cell population) were aliquoted into 96-well U-bottom plates and incubated with 50 μl of hybridoma cell culture supernatant or […] of commercially available purified mouse anti-human TfR monoclonal antibody (Sigma Aldrich, Cat #SAB4700515) and rat anti-mouse TfR antibody (Invitrogen, Waltham, MA, Cat #R17217) on ice for 30 minutes. After this primary incubation, the supernatants were removed via centrifugation, the cells were washed twice with 175 μl of ice-cold FACS buffer (PBS+1% FBS+2 mM EDTA), and the cells were then further incubated on ice for 20 minutes with anti-mouse IgG Fc-allophycocyanin (APC) or anti-rat IgG Fc-APC (Jackson Labs, Cat #115-136-071 and Cat #112-136-071, respectively) (diluted 1:1000). Following this secondary antibody incubation, the cells were again washed twice with ice-cold FACS buffer and resuspended in a final volume of 50 μl of FACS buffer. Binding intensity on cells was analyzed using the FACS Canto system (BD Biosciences), and the ratio of APC Mean Fluorescence Intensity (MFI) on each barcoded cell population was determined for each anti-TfR hybridoma supernatant tested.

Row | Binder | fold over parental (CHO WT) [fold]
15 | B1 | 1
16 | B2 | 1
17 | B3 | 1
18 | B4 | 1
19 | B5 | 1
20 | B6 | 1
21 | B7 | 1
22 | B8 | 1
23 | B9 | 1
24 | B10 | 1
25 | B11 | 1
26 | B12 | 1
27 | B13 | 1
28 | B14 | 1

Each binder was assayed against T3, Full length human TfR on CHO cells (human, UniProt P02786 1-760) (assay: FACS MFI, supernatant).
T3 construct: also called CHO + huTfR; CHO + hTfR
T3 sequence (P02786 whole entry): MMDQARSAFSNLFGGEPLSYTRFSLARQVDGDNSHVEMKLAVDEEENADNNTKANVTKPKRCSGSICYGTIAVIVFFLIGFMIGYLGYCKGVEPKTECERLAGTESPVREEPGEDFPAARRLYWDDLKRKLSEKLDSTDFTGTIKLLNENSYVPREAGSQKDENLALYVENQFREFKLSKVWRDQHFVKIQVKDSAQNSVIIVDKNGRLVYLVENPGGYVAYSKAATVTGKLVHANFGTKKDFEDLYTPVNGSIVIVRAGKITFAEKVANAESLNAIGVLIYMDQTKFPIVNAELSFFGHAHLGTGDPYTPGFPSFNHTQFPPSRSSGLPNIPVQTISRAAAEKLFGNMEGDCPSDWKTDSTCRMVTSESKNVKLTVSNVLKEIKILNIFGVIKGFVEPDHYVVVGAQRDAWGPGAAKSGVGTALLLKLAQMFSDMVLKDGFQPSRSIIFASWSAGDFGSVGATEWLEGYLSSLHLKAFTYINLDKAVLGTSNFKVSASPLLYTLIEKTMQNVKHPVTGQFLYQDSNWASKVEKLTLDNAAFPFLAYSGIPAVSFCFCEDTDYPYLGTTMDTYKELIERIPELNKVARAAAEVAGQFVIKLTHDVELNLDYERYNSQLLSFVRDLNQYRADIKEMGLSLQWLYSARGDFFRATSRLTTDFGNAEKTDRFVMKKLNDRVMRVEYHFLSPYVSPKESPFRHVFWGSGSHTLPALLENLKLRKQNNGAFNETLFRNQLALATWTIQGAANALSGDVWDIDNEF
Protocol: as §1

Row | Binder | fold over parental (CHO WT) [fold]
29 | B1 | 389
30 | B2 | 285
31 | B3 | 135
32 | B4 | 370
33 | B5 | 290
34 | B6 | 534
35 | B7 | 392
36 | B8 | 119
37 | B9 | 290
38 | B10 | 73
39 | B11 | 157
40 | B12 | 279
41 | B13 | 90
42 | B14 | 279

These binders were tested against T2, Full length Mouse TfR on CHO cells (assay: FACS, CHO+muTfR).
Protocol: as §1

Row | Binder | binding result
43 | B1 | no binding
44 | B2 | no binding
45 | B3 | no binding
46 | B4 | no binding
47 | B5 | no binding
48 | B6 | no binding
49 | B7 | no binding
50 | B8 | no binding
51 | B9 | no binding
52 | B10 | no binding
53 | B11 | no binding
54 | B12 | no binding
55 | B13 | no binding
56 | B14 | no binding
